Consider one molecule from doi:10.1101/2021.07.07.451367 (bioRxiv, 2021).

In this assay the target is T1, mNG::aPKC (C. elegans (endogenous in zygotes), UniProt Q19266 1-597).
T1 sequence (looked up): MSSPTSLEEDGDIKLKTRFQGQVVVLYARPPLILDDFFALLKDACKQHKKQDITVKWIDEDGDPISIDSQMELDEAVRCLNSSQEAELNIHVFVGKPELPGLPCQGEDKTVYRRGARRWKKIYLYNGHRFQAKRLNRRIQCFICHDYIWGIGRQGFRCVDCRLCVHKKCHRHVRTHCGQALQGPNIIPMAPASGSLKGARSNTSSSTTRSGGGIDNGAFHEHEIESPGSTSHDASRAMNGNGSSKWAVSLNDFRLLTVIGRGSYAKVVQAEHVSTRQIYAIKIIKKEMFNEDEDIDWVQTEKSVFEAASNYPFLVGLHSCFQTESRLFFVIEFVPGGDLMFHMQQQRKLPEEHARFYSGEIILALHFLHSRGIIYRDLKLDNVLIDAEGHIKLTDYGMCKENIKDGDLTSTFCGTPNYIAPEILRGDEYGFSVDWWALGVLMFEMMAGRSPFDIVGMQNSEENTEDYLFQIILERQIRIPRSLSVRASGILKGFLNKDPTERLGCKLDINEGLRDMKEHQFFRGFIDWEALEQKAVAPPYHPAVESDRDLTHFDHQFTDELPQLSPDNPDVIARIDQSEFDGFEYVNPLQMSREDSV
As to the kind of experiment: single-cell single-molecule pull-down.

B1: PAR-6::HaloTag (natural protein, C. elegans (endogenous in zygotes), UniProt Q9NAN2 1-309, looked up)
chain: MSYNGSYHQNHHSTLQVKSKFDSEWRRFSIPMHSASGVSYDGFRSLVEKLHHLESVQFTLCYNSTGGDLLPITNDDNLRKSFESARPLLRLLIQRRGESWEEKYGYGTDSDKRWKGISSLMAQKPPKRSYSISNPEDFRQVSAIIDVDIVPEAHRRVRLCKHGQERPLGFYIRDGTSVRVTERGVVKVSGIFISRLVDGGLAESTGLLGVNDEVLEVNGIEVLGKTLDQVTDMMVANAHNLIITVKPANQRNTLSRGPSQQGTPNASEMSAATAAATGGIQRPMKMNGSSDGSYHPKQHDANDSDSGED
modifications: HaloTag labelled with HaloTag ligand dye JF646, JFX646 or JFX650
As a reminder, the koff is the rate constant with which the complex falls apart. Low values mean a long-lived complex, high ones a short-lived complex. Consider B1, for which the koff stood at 0.002 s⁻¹.
